Here are results for nine molecules from patent EP2718310B1 (TLA Targeted Immunotherapies AB, dated 2017).

The target of assay [1] is CCR3 (human) (UniProt P51677). The assay is described as follows: cell-based or functional assay.
Another assay concerns the target T1, hCCR2b (human, UniProt P41597 1-374).
T1 chain: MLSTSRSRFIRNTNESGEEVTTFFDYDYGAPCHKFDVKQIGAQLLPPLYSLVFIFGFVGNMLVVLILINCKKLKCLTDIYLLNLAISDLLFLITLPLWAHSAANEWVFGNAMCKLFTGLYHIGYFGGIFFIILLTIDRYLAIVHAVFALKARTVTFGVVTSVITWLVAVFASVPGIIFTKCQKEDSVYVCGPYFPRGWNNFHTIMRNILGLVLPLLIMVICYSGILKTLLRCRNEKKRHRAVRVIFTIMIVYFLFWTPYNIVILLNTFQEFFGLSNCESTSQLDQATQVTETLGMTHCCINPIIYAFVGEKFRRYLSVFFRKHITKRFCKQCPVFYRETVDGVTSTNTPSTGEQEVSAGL
Briefly: cell-based or functional assay.

Assay [2] concerns the target CCR5 (human) (UniProt P51681). Briefly: cell-based or functional assay.
In a further assay the target is CCR9 (human) (UniProt P51686). The assay is described as follows: cell-based or functional assay.
CCR9 (human), sequence (P51686 whole entry): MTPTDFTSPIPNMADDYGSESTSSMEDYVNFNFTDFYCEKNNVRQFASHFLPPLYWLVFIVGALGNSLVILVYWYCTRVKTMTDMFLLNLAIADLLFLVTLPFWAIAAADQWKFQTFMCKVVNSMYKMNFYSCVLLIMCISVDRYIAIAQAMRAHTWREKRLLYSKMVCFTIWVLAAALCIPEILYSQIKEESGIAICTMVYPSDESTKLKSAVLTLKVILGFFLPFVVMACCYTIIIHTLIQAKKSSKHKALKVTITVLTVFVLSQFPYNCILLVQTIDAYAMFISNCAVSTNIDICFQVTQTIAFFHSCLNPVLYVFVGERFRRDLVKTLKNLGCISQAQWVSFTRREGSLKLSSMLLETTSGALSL
Assay [3] has as its target CCR5 (human) (UniProt P51681). The assay is described as follows: in vitro depletion: biotinylated RANTES coupled matrix, flow cytometry for CCR1, 3 or 5-expressing cells (receptor not singled out). Background: A flow cytometer gives signals particle by particle.
Assay [4] has as its target CCR3 (human) (UniProt P51677). Described as above.
For another assay, the target named is CCR1 (UniProt P32246). Described as above.
CCR1, sequence (P32246 whole entry): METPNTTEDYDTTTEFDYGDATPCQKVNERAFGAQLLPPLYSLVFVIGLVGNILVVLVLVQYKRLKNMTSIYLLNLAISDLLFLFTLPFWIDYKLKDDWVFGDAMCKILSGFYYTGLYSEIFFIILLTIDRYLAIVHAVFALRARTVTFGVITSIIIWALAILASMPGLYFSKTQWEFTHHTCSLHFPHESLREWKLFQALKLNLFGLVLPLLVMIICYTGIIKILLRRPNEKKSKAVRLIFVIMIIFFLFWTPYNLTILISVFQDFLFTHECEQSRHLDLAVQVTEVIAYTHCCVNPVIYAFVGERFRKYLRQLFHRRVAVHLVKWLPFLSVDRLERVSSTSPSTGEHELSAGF
The target in assay [5] is CCR3 (human) (UniProt P51677). The assay is described as follows: in vitro depletion: blood passed through magnetic column with eotaxin coupled MACS beads, flow cytometry for CCR3-expressing cells.

CCR3 (human), sequence (P51677 whole entry): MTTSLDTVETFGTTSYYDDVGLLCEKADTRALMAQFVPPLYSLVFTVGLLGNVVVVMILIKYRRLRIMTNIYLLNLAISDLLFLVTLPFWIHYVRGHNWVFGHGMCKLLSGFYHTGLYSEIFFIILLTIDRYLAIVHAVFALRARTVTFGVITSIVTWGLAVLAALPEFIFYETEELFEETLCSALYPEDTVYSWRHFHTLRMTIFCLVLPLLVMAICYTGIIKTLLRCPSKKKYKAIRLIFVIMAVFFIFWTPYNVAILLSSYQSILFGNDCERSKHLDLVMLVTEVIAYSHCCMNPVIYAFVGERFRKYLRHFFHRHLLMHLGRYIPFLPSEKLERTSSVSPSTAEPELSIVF
CCR5 (human), sequence (P51681 whole entry): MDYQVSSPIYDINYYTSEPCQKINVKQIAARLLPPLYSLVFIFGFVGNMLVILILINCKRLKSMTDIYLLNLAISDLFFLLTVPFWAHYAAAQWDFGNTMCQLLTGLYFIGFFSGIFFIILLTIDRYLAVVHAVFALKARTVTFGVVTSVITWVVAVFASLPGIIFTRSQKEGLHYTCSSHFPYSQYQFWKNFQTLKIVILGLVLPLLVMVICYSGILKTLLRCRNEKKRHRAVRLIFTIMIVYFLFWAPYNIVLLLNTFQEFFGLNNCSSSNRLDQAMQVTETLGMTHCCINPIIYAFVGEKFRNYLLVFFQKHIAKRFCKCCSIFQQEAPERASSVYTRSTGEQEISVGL

In the assay with CCR3 (human) [1], biotinEotaxin (CCL11) (ligand) had an EC50, Aequorin assay (antagonist) of 212 nM.

In turn, biotinMCP-2 (CCL8) (ligand) displayed an EC50, Aequorin assay (partial agonist) with hCCR2b of 50.9 nM.

With biotinRANTES (CCL5) (ligand), the EC50, Aequorin assay (agonist activity) with CCR5 (human) [2] amounted to 0.5 nM.

For the molecule “biotinTECK(Met to Nleu substitution) (ligand)”, the EC50, Aequorin assay (agonist activity) in the assay with CCR9 (human) worked out at 63.6 nM.

Regarding “biotinylated RANTES coupled matrix (ligand)”, the reduction of receptor-expressing cells by the column with CCR5 (human) [3], with CCR3 (human) [4] and with CCR1 was 20% in each case.

Take “biotinylated eotaxin coupled matrix (ligand)”: the reduction of receptor-expressing cells by the column with CCR3 (human) [5] is 25%.

For the molecule “recombinant native TECK (from UniProt O15444 24-150) (ligand)”, in the assay with CCR9 (human), the EC50, Aequorin assay (agonist activity) came out at 67.9 nM.

In the assay with CCR3 (human) [1], recombinant native eotaxin (ligand) registered an EC50, Aequorin assay (agonist) of 10.7 nM.

B1: recombinant native MCP-2 (ligand, UniProt P80075 24-99, looked up)
chain: QPDSVSIPITCCFNVINRKIPIQRLESYTRITNIQCPKEAVIFKTKRGKEVCADPKERWVRDSMKHLDQIFQNLKP
With B1, the “EC50, Aequorin assay (partial agonist)” value with hCCR2b worked out at 23.5 nM.
